The text below walks through data of patent US20250257130A1 (NONA BIOSCIENCES SUZHOU, published 2025).

Where a chain is given by its changes, count along the chain named.

First the molecules themselves.
B1: PR303145 (antibody, human IgG1, V domains shown)
VH: QVQLVESGGGLVKPGGSLRISCAASGFTFSNYNMSWIRQAPGKGVEWVSHISGSGRTIYYAESVKGRFTISRDNAKNSLYLQMNSLRAEDTAMYYCARDLSSGWYEDFDYWGQGTLVTVSS
notes: HCAb (heavy chain-only, human IgG1 Fc), no light chain
B2: PR303199 (antibody, human IgG1, V domains shown)
VH: EVQLVESGGGLVKPGGSLRLSCAASGFTFSDYYMSWIRQAPGKGLEWIAYISSSGSTIYYADSVKGRFTISRDNAKNSLYLQMNSLRAEDTAIYYCAREYYGSENYDHFDYWGQGTLVTVSS
notes: as for B1
B3: PR303155 (antibody, human IgG1, V domains shown)
VH: EVQLVESGGGLVKPGGSLRLSCAASGFTLSDYYMSWIRQAPGKGLEWISYISSNGSTIYYADSVKGRFTISRDNARNSLYLQMNSLRAEDTALYYCARDVSSGWYEDFDYWGQGTLVTVSS
notes: as for B1
B4: PR005346 (antibody, human IgG1, V domains shown)
VH: EVQLVESGGGLVKPGGSLRLSCAASGFTLSDYYMSWIRQAPGKGLEWVSNISKNGFTIYYAESVKGRFTVSRDNAKNSLYLQMNSLRAEDTAIYYCARDSSGWYSEFDYWGQGTLVTVSS
notes: as for B1
B5: PR005345 (antibody, human IgG1, V domains shown)
VH: EVQLVESGGGLVKPGGSLRLSCAASGFTFSDYYMSWIRQAPGKGLEWIAYISSSGSTIHYSDSVKGRFTISRDNAKNSLYLQMNSLRAEDTAVYYCARDTPSSSSDWVSLQFDYWGQGTPVTVSS
notes: as for B1
B6: PR005348 (antibody, human IgG1, V domains shown)
VH: EVQLVESGGGLVKPGGSLRLSCAASGFTFSDYYMSWIRQTPGKGLEWVSYISRSGSTKYYADSVKGRFTISRDNAKNSLYLQMNSLRAEDTAVYYCARDAPSSNSDWVSLHFDHWGQGTLVTVSS
notes: as for B1
B7: PR005350 (antibody, human IgG1, V domains shown)
VH: EVQLVESGGGLVKPGGSLRLSCAASGFTLSDSQMSWIRQAPGKGVEWVSYISSSGNTIYYGDSVKGRFTISRDNAKNSLFLQMNSLRAEDTAVYYCARVPPSSSNWYEDFDIWGQGTLVTVSS
notes: as for B1
B8: PR005339 (antibody, human IgG1, V domains shown)
VH: B3 VH with R19K, L29F, L45V, S53N, Y59H, R76K, L93V, V100F, S101N, S102N
notes: as for B1
B9: PR005342 (antibody, human IgG1, V domains shown)
VH: EVQLVESGGGLVKPGGSLRLSCAASGFNFSDYYMSWIRQAPGKGLEWISYISNSSSTIYYADSVKGRFTISRDNAKNSLYLQMSRLRAEDTAMYYCARDTTNGWYEDFDYWGQGTLVTVSS
notes: as for B1
B10: PR005343 (antibody, human IgG1, V domains shown)
VH: EVQLVESGGGLVKPGGSLRLSCVASGFTFSDYYMSWIRQAPGKGMEWISYISSSGSTKNYANSVKGRFTISRDNAKNSLYLQMNSLRAEDTAAYYCARVPPYNASWYEDFDYWGQGTLVTVSS
notes: as for B1
B11: PR005347 (antibody, human IgG1, V domains shown)
VH: B10 VH with A24T, S53T, S54T, N77S, Y102S
notes: as for B1
B12: PR007421 (antibody, V domains shown)
VH: EVQLVESGGGLVKPGGSLRLSCAASGFTFSDFYMSWIRQAPGKGLEWISYIDSSGRPLAYADSVKGRFTISRDNAKNSLYLQMNSLRAEDTAIYYCARDMPSSSSDWVSLQFDYWGQGTLVTVSS
notes: bivalent form (HCAb) variant of PR005340, no light chain

T3 sequence (Q01973 30-937): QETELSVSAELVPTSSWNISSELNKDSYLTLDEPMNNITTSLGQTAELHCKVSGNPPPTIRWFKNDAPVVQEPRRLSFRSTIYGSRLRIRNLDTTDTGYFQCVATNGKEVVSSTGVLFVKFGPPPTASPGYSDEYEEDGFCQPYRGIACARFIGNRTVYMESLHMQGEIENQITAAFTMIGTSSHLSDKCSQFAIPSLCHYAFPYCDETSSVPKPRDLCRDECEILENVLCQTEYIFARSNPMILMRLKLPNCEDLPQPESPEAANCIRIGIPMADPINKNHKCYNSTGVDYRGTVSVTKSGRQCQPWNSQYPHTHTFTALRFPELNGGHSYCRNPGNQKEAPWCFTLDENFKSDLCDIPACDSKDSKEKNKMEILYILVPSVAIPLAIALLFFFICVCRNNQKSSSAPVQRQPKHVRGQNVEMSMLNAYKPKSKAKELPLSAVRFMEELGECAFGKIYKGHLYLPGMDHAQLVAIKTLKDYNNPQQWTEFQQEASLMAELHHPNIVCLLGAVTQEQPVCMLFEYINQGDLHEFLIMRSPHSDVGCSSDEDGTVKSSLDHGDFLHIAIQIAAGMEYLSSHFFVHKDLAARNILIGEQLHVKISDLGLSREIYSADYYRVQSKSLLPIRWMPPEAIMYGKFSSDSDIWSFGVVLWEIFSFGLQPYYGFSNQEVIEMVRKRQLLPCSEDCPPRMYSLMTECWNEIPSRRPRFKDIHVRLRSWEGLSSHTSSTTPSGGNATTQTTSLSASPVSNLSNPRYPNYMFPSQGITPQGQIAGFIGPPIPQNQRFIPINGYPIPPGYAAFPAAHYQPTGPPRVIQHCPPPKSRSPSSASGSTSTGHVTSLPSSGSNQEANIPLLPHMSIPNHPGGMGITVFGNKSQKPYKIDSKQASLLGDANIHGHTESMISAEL

For one assay, the target named is T1, Human ROR1-ECD-his (Acro Biosystems RO1-H522y) (human, UniProt Q01973 30-406).
T1 construct: extracellular domain; bought protein; also called hROR1-ECD-his; hu-ROR1-ECD-his
T1 sequence (Q01973 30-406): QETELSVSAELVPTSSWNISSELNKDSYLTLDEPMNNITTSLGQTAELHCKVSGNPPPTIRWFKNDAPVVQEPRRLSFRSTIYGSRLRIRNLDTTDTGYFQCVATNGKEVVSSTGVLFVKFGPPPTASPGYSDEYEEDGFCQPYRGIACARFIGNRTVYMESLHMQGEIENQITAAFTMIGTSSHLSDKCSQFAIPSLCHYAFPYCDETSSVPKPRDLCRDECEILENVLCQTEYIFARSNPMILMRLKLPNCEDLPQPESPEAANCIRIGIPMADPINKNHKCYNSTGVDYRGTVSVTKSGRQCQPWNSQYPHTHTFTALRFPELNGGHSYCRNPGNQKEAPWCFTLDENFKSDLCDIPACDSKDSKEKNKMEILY
Nature of the assay: BLI, ROR1-His on HIS1K sensor, antibody in solution. How it is done:
In the example, binding kinetics of anti-ROR1 antibodies to soluble ROR1 protein were analyzed by using Bio-Layer Interferometry (BLI) analysis on Fortebio Octet Red384 instrument (Fortebio).
In BLI analysis, recombinant anti-ROR1 antibodies was serially diluted with 10× kinetics buffer (Fortebio). Human ROR1-His proteins were diluted to 20 nM. Then the diluted antibodies, ROR1 proteins and regeneration buffer (10 mM glycine HCl pH 1.5) were added to 96-well plates (Greiner). Rate constants for association and dissociation were measured using HIS1K sensor (Fortebio). The sensor surface was regenerated after each binding experiment with regeneration buffer. The traces were processed using Octet Data Analysis Software (version 11.0, Pall ForteBio, CA, USA).
Broadly, the Kd is a measure of binding affinity in units of concentration. A lower Kd goes with a tighter complex. The term koff denotes a measure of how fast the partners let go of each other. For orientation: kon means the second-order rate constant of association. In the case of B1, binding was characterised by a dissociation constant (Kd) of 11.1 nM, the koff was determined as 0.0031 s⁻¹ and the kon was found to be 278000 M⁻¹ s⁻¹.

As for B2, the affinity, expressed as Kd, was 14.1 nM; the koff is 0.00173 s⁻¹; the kon was found to be 123000 M⁻¹ s⁻¹.

For B3, the dissociation constant (Kd) came to 6.83 nM, the koff stood at 0.00336 s⁻¹ and the kon was 492000 M⁻¹ s⁻¹.

In a further assay the target is T2, cynomolgus ROR1 on CHO-K1-cynoROR1 cells (cynomolgus monkey, UniProt A0A2K5WTX7 30-937).
T2 construct: whole, on cells
In words: flow cytometry, CHO-K1-cynoROR1 cells. How it is done:
(§1) Binding of recombinant anti-ROR1 antibodies to human or cynomolgus ROR1-overexpressing cells was tested by flow cytometry. In this example, ROR1-expressing cell lines are HEK293T cell lines that had been transfected to express human ROR1 on the surface (HEK293T-hu ROR1, KYINNO BIOTECHNOLOGY CO., LTD, Catalog #KC-1018), CHO-K1 cell lines that had been transfected to express cynomolgus ROR1 (CHOK1-cyno ROR1), PANC-1 (ATCC, catalog: CRL-1469) or A549 cell lines (Shanghai Institute of Biochemistry and Cell Biology, Chinese Academy of Sciences).
(§2) In brief, anti-ROR1 antibodies were serially diluted in staining buffer (PBS containing 2% FBS). Antibody solution was incubated with 1×10⁵ cells at 4° C. for 1 hour. […] After 1-hour incubation at 4° C., cells were washed twice with staining buffer and subjected to flow cytometry. PR000374 (Bench marker 1) and non-relevant IgG isotype control (Crownbio) were used as positive and negative controls, respectively.
For orientation: In flow cytometry, cells or beads pass a laser one at a time.
In turn, B4 came in with a Max of 26600.

B5 returned a Max of 24600.

In the case of B6, the Max was determined as 28000.

B7 came in with a Max of 14400.

Molecule B8 showed a Max of 34800.

In the case of B9, the Max came out at 34500.

Take B10: the Max is 34100.

B11 came in with a Max of 32700.

A further assay concerns the target T3, human ROR1 on cells (HEK293T-hROR1, PANC-1, A549) (human, UniProt Q01973 30-937).
T3 construct: whole, on cells; one molecule for the three cell lines; also called huROR1; cell surface ROR1
In words: flow cytometry, A549 cells. How it is done:
as §2
What is called EC50 is the concentration that produces a half-maximal response. Higher therefore signals lower potency in that assay. As to B1, the EC50 is 0.93 µg/mL and the “MAX(MFI)” value was 875000 MFI.

For the molecule B2, the midpoint of the response, the EC50, lay at 6.79 µg/mL and the “MAX(MFI)” value was 408000 MFI.

As for B3, the EC50 was found to be 1.32 µg/mL and the “MAX(MFI)” value stood at 791000 MFI.

The target in a further assay is T2, cynomolgus ROR1 on CHO-K1-cynoROR1 cells. Nature of the assay: flow cytometry on CHOK1-cynoROR1 cells, MFI (APC-A Median) [top panel]. How it is done:
as §1, §2
In general, EC50 (read off the curve) refers to the concentration giving half of the maximal effect. The low end stands for an effect from little substance, the high end for a need for much substance. Turning to B8, the “EC50 (read off the curve)” value was around 4 nM.

B9: the “EC50 (read off the curve)” value was around 7 nM.

As for B10, the “EC50 (read off the curve)” value was around 4 nM.

With B11, the 50% effective concentration (EC50 (read off the curve)) was around 10 nM.

Another assay deals with T1, Human ROR1-ECD-his (Acro Biosystems …). Nature of the assay: ELISA, coated hu-ROR1-ECD-his. How it is done:
(§3) Binding of recombinant anti-ROR1 antibodies to hu-ROR1-ECD-his was tested by ELISA. In brief, 1 μg/mL hu-ROR1-ECD-his was added to the 96-well plate, 100 μL each well, incubated at 4° C. overnight, washing the plates with 1×PBST 3 times, 300 ul/well, blocking the plates with 2% BSA in 1×PBST, 200 ul/well at 37° C. for 1 hour, anti-ROR1 antibodies were serially diluted in staining buffer (PBS containing 2% BSA). Antibody solution was added to the plate and incubates at 37° C. for 1 hour, washing the plates with 1×PBST 3 times, 300 ul/well, adding secondary antibody 100 ul/well and incubate at 37° C. for 1 hour, washing the plates with 1×PBST 3 times, 300 ul/well and then add 100 ul/well TMB for about 5 min, stop the reaction by adding 100 ul/well 2M H₂SO₄, read the plates with Molecular device spectra max plus384 at 450 nm and 570 nm.
A general note: ELISA stands for enzyme-linked immunosorbent assay.
For the molecule B1, the response was half-maximal at 0.002 µg/mL (EC50).

As to B2, the midpoint of the response, the EC50, lay at 0.006 µg/mL.

Molecule B3 yielded an EC50 of 0.002 µg/mL. This EC50 lies about 3-fold lower than the previous one.

The target in another assay is T4, hu-ROR2-ECD-his (Acrobiosystems RO2-H52E5) (human, UniProt Q01974 34-403).
T4 construct: extracellular domain; bought protein; also called Human ROR2 his-tagged protein; Human ROR2, His Tag
T4 sequence (Q01974 34-403): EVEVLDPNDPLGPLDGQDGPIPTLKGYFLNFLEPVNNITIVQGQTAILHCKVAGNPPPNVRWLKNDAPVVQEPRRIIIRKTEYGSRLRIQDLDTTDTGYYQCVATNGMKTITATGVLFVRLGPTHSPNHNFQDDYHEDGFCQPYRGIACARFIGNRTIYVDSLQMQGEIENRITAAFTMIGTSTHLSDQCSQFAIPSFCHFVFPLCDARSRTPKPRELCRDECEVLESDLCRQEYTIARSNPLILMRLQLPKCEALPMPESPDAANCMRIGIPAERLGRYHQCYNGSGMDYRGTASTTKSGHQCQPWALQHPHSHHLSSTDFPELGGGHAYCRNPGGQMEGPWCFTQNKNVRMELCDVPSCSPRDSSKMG
Nature of the assay: ELISA, plate coated with hu-ROR2-his at 1 µg/mL. How it is done:
as §3, with “1” for “Binding of recombinant anti-ROR1 antibodies to hu-ROR1-ECD-his was tested by ELISA. In brief, 1”, “hu-ROR2-ECD-his (Acrobiocystems, RO2-H52E5)” for “hu-ROR1-ECD-his”
With B1, the binding result is given as “no binding (tested: about 15 µg/ml)”.

With B2, the binding result is “no binding (tested: about 15 µg/ml)”.

With B3, the binding result is reported as “no binding (tested: about 15 µg/ml)”.

The next assay concerns the target T3, human ROR1 on cells (HEK293T-hROR1, …). Nature of the assay: flow cytometry on PANC-1 cells, MFI (APC-A Median). How it is done:
as §1, §2
For B8, the “EC50 (read off the curve)” value is around 2 nM.

With B9, the concentration giving a half-maximal response (EC50 (read off the curve)) was around 4 nM.

With B10, the half-maximal effective concentration (EC50 (read off the curve)) was around 2 nM.

On to B11, for which the “EC50 (read off the curve)” value is around 8 nM.

The target in another assay is T2, cynomolgus ROR1 on CHO-K1-cynoROR1 cells. Nature of the assay: flow cytometry, CHO-K1-cynoROR1 cells. This is another data set of the same source. How it is done:
as §2
Regarding B1, the EC50 was 0.474 µg/mL and the “MAX(MFI)” value came out at 1.04e+07 MFI.

Regarding B2, a half-maximal response (EC50) required 1.43 µg/mL and the “MAX(MFI)” value was determined as 6.85e+06 MFI.

Turning to B3, the response was half-maximal at 0.804 µg/mL (EC50) and the “MAX(MFI)” value was 1.1e+07 MFI.

Another assay concerns the target T3, human ROR1 on cells (HEK293T-hROR1, …). Nature of the assay: flow cytometry, PANC-1 cells. How it is done: as §2
Binding activity of the variants to PANC-1 cells were tested using the same method described in example 5.1. The results were shown in FIGS. 7-8 and Table 11 and Table 12.
As to B12, the TOP worked out at 86600.

A further assay has the same target. Nature of the assay: flow cytometry, PANC-1 cells. The source holds these as a separate data set. How it is done: as §2
On to B4, for which the Max was 10200.

As to B5, the Max worked out at 9710.

Regarding B6, the Max is 10200.

The molecule B7 gave a Max of 4250.

Turning to B1, it took 0.654 µg/mL to reach a half-maximal effect (EC50) and the “MAX(MFI)” value was found to be 653000 MFI.

Consider B2, for which the EC50 came out at 11.3 µg/mL and the “MAX(MFI)” value was 462000 MFI.

Consider B8, for which the Max was 16200.

B3: the EC50 worked out at 1.07 µg/mL and the “MAX(MFI)” value was 552000 MFI.

For the molecule B9, the Max was found to be 16700.

In turn, B10 displayed a Max of 18300.

B11 returned a Max of 16400.

The target is the same in another assay. In words: flow cytometry, HEK293T-hROR1 cells. How it is done: as §2
As for B1, the EC50 came out at 0.158 µg/mL and the “MAX(MFI)” value came out at 1.35e+07 MFI.

Regarding B2, the EC50 was 0.191 µg/mL and the “MAX(MFI)” value came out at 1.53e+07 MFI.

B3: the midpoint of the response, the EC50, lay at 0.267 µg/mL and the “MAX(MFI)” value is 1.49e+07 MFI.
